The series concerns the molecule itself. The experiment in a line: AUC.

B1: histidine tagged MutL–NTD (domain or fragment, E. coli, UniProt P23367 1-375, looked up)
chain: MPIQVLPPQLANQIAAGEVVERPASVVKELVENSLDAGATRIDIDIERGGAKLIRIRDNGCGIKKDELALALARHATSKIASLDDLEAIISLGFRGEALASISSVSRLTLTSRTAEQQEAWQAYAEGRDMNVTVKPAAHPVGTTLEVLDLFYNTPARRKFLRTEKTEFNHIDEIIRRIALARFDVTINLSHNGKIVRQYRAVPEGGQKERRLGAICGTAFLEQALAIEWQHGDLTLRGWVADPNHTTPALAEIQYCYVNGRMMRDRLINHAIRQACEDKLGADQQPAFVLYLEIDPHQVDVNVHPAKHEVRFHQSRLVHDFIYQGVLSVLQQQLETPLPLDDEPQPAPRSIPENRVAAGRNHFAEPAAREPVAPR
Take B1: the “stoichiometry N” value is 2.

What is called stoichiometry N is a count of units in the complex or per binding partner.
